# Laboratory results from the supplement of paper PMC6379048.
# How the values were obtained:
# Test in all cases: EC50 of free RNA motif oligo competing protein binding to immobilised probe
# GRSF1 = target: T1, GRSF1 (UniProt Q12849)
# T1 sequence: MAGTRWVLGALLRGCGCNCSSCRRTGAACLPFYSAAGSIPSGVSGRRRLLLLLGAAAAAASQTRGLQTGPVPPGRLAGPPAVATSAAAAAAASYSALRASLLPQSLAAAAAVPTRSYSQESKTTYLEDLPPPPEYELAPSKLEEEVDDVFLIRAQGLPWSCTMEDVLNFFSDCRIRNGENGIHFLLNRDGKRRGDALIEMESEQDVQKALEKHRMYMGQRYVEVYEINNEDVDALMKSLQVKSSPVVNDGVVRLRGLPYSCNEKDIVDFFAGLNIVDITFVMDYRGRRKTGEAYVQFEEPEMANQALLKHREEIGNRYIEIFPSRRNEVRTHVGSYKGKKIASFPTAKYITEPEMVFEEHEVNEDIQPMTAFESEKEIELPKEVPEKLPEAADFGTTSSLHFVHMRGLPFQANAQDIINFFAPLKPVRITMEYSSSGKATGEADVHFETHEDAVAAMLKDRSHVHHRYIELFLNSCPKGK
# In short: (§1)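 HEK293-FT lysate (2.5 mg protein/well) was pre-incubated 1 h at 4°C with free RNA oligos (0 nM to 30 μM), then 30 min at 4°C with the same 5′-amino-C6 oligos coupled to NHS-Sepharose beads. Bound proteins were quantified by label-free LC-MS/MS in three biological replicates and two independent experiments, and normalised to the water control. EC50 came from a four-parameter log-logistic fit; Kd is EC50 times a protein-dependent depletion factor.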
# HNRNPA0 = target: T2, HNRNPA0 (UniProt Q13151)
# T2 sequence: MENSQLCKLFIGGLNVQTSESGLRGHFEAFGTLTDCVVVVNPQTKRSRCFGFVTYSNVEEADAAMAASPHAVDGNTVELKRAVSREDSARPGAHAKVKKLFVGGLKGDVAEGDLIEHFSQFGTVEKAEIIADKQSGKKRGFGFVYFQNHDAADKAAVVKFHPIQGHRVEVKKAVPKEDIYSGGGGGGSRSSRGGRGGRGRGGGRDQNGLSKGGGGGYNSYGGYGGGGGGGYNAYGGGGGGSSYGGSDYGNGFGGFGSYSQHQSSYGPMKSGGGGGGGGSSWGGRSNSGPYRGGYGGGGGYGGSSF
# In short: as §1
# TTC37 = TTC37 (UniProt Q6PGP7)
# Sequence of TTC37 (Q6PGP7 whole entry): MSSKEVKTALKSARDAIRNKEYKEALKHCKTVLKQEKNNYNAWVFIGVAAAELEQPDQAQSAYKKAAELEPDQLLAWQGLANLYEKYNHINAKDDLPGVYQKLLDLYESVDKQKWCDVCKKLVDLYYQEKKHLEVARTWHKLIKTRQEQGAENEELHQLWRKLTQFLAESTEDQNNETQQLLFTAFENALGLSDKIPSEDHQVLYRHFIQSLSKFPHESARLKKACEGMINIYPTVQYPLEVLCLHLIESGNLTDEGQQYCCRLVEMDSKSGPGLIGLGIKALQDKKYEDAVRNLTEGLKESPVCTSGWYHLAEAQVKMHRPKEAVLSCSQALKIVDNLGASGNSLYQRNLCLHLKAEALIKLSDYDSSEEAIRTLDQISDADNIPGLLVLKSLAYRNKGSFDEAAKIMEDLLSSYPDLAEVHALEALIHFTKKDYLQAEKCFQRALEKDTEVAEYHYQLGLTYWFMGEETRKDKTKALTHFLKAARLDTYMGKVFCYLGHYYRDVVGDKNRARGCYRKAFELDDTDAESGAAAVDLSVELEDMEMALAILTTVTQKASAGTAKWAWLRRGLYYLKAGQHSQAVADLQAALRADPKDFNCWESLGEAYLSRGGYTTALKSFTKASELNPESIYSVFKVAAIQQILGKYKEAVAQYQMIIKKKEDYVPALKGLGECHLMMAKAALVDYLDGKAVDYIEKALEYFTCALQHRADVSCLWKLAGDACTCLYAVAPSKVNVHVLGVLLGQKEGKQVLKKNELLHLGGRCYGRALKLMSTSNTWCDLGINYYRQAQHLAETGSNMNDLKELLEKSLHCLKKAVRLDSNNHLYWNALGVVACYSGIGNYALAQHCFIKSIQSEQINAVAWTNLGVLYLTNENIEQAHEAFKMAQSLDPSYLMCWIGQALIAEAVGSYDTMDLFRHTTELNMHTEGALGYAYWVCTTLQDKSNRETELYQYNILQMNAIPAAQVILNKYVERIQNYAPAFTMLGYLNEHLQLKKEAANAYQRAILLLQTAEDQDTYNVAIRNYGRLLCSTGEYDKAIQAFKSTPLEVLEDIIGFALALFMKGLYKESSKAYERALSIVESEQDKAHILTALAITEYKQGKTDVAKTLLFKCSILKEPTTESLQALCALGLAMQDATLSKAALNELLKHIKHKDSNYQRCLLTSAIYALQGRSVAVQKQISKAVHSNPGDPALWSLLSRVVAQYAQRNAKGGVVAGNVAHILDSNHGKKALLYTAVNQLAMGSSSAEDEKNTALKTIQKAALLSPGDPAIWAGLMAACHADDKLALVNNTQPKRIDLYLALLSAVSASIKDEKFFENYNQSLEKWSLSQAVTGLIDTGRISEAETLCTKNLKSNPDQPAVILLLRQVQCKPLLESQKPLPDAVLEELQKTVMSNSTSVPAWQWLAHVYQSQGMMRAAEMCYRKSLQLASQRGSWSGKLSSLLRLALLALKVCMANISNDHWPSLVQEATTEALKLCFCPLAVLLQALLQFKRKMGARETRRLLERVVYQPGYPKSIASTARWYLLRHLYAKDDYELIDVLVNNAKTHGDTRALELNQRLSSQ
# In short: as §1
# ZCCHC11 = ZCCHC11 (UniProt Q5TAX3)
# Sequence of ZCCHC11 (Q5TAX3 whole entry): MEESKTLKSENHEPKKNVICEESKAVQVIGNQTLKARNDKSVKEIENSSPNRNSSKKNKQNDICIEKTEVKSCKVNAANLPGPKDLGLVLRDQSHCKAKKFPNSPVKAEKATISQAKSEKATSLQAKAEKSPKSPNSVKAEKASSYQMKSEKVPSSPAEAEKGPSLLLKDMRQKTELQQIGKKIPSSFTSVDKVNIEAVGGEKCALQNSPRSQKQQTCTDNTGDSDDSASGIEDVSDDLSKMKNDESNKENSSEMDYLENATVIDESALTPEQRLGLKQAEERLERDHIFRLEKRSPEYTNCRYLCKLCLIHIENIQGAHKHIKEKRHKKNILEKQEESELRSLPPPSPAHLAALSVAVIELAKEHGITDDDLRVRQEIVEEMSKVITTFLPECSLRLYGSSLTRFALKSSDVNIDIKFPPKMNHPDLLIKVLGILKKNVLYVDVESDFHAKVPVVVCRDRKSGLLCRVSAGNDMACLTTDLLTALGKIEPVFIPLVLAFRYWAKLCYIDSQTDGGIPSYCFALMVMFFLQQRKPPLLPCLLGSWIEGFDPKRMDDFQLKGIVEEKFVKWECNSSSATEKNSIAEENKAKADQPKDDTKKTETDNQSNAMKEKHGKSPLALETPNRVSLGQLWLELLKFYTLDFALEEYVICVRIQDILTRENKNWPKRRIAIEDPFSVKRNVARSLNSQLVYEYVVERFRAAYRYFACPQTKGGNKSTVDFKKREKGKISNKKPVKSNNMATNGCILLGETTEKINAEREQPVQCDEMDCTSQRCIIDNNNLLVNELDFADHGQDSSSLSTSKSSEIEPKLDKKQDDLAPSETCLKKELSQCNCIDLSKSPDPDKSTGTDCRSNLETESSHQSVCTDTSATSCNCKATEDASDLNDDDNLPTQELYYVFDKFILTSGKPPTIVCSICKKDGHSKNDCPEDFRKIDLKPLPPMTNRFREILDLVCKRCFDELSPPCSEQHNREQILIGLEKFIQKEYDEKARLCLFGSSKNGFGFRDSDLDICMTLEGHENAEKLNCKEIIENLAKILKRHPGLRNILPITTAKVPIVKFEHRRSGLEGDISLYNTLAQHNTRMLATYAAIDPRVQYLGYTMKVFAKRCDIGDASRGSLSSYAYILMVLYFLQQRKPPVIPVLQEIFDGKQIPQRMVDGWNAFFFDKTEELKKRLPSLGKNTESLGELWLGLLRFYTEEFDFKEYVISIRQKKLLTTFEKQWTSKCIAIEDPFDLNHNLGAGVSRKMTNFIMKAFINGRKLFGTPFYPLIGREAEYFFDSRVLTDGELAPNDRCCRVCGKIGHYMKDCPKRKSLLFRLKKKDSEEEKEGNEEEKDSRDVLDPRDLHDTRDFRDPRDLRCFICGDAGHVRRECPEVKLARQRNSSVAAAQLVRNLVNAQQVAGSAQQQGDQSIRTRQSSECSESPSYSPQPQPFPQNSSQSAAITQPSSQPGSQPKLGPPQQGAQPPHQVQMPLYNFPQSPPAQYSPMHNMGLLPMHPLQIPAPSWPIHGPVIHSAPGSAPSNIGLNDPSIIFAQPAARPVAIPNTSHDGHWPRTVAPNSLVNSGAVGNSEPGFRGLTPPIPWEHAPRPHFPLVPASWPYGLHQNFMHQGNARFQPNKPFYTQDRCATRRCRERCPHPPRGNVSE
# In short: as §1
# ZFP36L1 = target: T3, ZFP36L1 (UniProt Q07352)
# T3 sequence: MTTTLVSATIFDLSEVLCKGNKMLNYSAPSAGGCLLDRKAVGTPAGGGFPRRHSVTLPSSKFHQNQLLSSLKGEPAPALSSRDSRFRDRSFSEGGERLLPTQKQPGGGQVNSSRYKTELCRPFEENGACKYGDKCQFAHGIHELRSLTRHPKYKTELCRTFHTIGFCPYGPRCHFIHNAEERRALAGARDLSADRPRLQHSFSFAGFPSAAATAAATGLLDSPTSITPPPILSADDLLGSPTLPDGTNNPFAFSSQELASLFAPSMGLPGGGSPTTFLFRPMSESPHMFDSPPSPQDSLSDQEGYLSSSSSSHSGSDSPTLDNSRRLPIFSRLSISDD
# In short: as §1
# CPSF7 = target: T4, CPSF7 (UniProt Q8N684)
# T4 sequence: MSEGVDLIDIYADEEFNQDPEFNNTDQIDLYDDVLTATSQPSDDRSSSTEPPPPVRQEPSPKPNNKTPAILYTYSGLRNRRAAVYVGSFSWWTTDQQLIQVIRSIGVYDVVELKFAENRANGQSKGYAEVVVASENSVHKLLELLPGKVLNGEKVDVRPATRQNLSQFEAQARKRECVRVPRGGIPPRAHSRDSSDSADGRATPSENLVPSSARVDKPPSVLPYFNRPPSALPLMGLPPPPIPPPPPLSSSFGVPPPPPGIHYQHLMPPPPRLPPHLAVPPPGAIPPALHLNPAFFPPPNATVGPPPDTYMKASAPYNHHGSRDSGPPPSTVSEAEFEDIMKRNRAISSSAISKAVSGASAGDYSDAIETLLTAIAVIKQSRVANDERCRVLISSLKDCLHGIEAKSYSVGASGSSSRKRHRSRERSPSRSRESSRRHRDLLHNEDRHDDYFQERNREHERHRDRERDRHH
# In short: as §1
# CSNK2B = CSNK2B (UniProt P67870)
# Sequence of CSNK2B (P67870 whole entry): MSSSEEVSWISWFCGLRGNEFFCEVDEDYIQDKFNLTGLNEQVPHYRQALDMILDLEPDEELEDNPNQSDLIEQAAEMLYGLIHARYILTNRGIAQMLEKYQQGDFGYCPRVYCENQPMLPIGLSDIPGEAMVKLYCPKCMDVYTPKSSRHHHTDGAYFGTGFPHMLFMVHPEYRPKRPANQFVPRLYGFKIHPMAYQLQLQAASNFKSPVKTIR
# In short: as §1
# SF3B5 = target: T5, SF3B5 (UniProt Q9BWJ5)
# T5 sequence: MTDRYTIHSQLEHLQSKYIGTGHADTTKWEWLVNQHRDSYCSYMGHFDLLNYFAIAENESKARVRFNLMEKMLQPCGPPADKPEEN
# In short: as §1
# HNRNPK = HNRNPK (UniProt P61978)
# In short: as §1
# IGF2BP3 = IGF2BP3 (UniProt O00425)
# Sequence of IGF2BP3 (O00425 whole entry): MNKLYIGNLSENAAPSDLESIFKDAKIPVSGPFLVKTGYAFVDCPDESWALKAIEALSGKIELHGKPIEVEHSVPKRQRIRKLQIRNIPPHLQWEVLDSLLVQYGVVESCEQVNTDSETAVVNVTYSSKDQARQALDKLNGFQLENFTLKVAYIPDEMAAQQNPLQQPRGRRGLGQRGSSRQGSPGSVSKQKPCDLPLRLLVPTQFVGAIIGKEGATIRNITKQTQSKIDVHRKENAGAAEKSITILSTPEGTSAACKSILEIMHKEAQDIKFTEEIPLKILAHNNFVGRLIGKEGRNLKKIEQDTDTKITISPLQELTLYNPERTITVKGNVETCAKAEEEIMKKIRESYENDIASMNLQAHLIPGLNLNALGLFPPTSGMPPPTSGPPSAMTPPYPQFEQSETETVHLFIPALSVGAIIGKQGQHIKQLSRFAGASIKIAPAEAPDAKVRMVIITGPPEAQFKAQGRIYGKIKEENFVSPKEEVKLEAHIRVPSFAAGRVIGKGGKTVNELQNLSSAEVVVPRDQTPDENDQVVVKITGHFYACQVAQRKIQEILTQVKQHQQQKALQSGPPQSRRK
# In short: as §1
# MRPL12 = MRPL12 (UniProt P52815)
# In short: as §1
# MRPL38 = MRPL38 (UniProt Q96DV4)
# In short: as §1
# PCBP2 = PCBP2 (UniProt Q15366)
# Sequence of PCBP2 (Q15366 whole entry): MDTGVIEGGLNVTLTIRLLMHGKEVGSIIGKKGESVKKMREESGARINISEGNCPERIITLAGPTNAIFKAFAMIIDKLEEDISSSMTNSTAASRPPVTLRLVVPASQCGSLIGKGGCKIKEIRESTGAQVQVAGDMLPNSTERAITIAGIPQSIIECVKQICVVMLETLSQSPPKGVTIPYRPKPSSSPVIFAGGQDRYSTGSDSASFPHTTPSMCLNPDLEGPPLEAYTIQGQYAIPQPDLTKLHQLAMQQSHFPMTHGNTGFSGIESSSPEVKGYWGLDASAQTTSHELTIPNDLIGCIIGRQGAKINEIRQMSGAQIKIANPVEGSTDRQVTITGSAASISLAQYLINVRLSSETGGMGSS
# In short: as §1
sequence,measurement,setting,value
UAUUUAU,EC50,GRSF1,18 µM
same,EC50,HNRNPA0,4.86 µM
same,EC50,TTC37,0.947 µM
same,EC50,ZCCHC11,0.108 µM
same,EC50,ZFP36L1,0.0739 µM
AAUAAA,EC50,CPSF7,8.82 µM
same,EC50,CSNK2B,3.56 µM
same,EC50,SF3B5,1.21 µM
CUGUCCU,EC50,HNRNPK,3.04 µM
same,EC50,IGF2BP3,3.77 µM
same,EC50,MRPL12,0.115 µM
same,EC50,MRPL38,0.119 µM
same,EC50,PCBP2,3.39 µM
